Values of other authors as cited in publication PMC5663392.

Molecular target: FANCL RING (Homo sapiens) (UniProt Q9NW38)
UniProt Q9NW38, sequence (Q9NW38 304-366): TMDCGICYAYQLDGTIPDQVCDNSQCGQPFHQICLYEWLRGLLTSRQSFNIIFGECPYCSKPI

In the case of Ube2T (from UniProt Q9NPD8), the Kd is given as 500 nM.
